From paper doi:10.1101/2024.07.30.605797

Target: C-terminal His6-tagged VanA-type VanS^127-384 (cytoplasmic domain of the histidine kinase VanS) (UniProt Q06240)
Assay: differential scanning fluorimetry

Row | Substance | Kd
1 | sviceucin (peptide) | 52 µM
2 | siamycin I (peptide) | 38 µM
